What all share (assay): EMSA
The test system of data set [1] is tau 1N4R, P10636-7. To be noted: Hill fit, EMSA: 20 nM DNA or nucleosome, 20 mM HEPES pH 7.2, 10 mM NaCl (or 150), 0.5 mM TCEP, 0.1% Tween-20, 5% sucrose, room temperature 20 min, FA: 10 nM DNA, same …. On the technique in general: Mobility shift assays separate free from complexed probe on a gel.
Data set [2] deals with PG-ptau (tau 1N4R phosphorylated by PKA and GSK-3β), P10636-7. To be noted: EMSA: 20 nM DNA or nucleosome, 20 mM HEPES pH 7.2, 10 mM NaCl (or 150), 0.5 mM TCEP, 0.1% Tween-20, 5% sucrose, room temperature 20 min, FA: 10 nM DNA, same ….
For data set [3], the system named is tau ΔPRD-DBR (1N4R) del191-211, P10636-7. The settings on record: EMSA: 20 nM DNA or nucleosome, 20 mM HEPES pH 7.2, 10 mM NaCl (or 150), 0.5 mM TCEP, 0.1% Tween-20, 5% sucrose, room temperature 20 min; FA: 10 nM DNA, same ….

pKd: −log10 of the molar value.

Sequence of tau 1N4R, P10636-7 (P10636 other isoform, or with tags, fused parts or gaps): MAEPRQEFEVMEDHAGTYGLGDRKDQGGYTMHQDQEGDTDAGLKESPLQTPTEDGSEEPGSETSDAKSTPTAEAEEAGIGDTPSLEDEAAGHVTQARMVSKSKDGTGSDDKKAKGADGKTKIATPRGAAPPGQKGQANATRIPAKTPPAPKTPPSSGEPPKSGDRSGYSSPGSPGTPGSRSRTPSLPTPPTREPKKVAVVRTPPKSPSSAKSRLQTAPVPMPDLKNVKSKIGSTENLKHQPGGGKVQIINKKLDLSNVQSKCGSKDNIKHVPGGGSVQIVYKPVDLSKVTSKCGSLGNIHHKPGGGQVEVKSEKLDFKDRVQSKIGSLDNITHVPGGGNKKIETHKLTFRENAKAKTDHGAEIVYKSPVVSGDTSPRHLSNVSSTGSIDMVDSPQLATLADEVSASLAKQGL
Sequence of PG-ptau (tau 1N4R phosphorylated by PKA and GSK-3β), P10636-7 (P10636 other isoform, or with tags, fused parts or gaps): as above
Sequence of tau ΔPRD-DBR (1N4R) del191-211, P10636-7 (P10636 other isoform, or with tags, fused parts or gaps mutant): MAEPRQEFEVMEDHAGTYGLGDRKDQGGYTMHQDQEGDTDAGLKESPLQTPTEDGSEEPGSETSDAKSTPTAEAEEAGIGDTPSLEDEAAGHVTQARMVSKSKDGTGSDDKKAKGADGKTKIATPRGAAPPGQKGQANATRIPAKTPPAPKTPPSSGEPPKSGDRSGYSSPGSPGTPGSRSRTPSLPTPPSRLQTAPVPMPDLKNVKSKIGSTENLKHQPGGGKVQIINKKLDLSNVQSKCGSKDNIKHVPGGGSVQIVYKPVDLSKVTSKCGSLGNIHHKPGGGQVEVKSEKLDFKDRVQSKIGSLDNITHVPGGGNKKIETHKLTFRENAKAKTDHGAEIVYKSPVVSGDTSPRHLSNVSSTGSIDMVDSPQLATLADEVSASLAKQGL

As for “CTGGAGAATCCCGGTGCCGAGGCCGCTCAATTGGTCGTAGACAGCTCTAGCACCGCTTAAACGCACGTACGCGCTGTCCCCCGCGTTTTAACCGCCAAGGGGATTACTCCCTAGTCTCCAGGCACGTGTCAGATATATACATCCTGT (double strand) [147 bp mononucleosome (linker-free)]”, in data set [1] (10 mM NaCl), the pKd – broadly, −log10 of the Kd, conventionally taken in molar units – was 7.08.
“ACTACGCGGCCGCCCTGGAGAATCCCGGTGCCGAGGCCGCTCAATTGGTCGTAGACAGCTCTAGCACCGCTTAAACGCACGTACGCGCTGTCCCCCGCGTTTTAACCGCCAAGGGGATTACTCCCTAGTCTCCAGGCACGTGTCAGATATATACATCCTGTGCATGTAAGATCCAGT (double strand) [177 bp mononucleosome]”: the pKd was 6.98 in data set [1] (10 mM NaCl) and 6.78 in data set [2].
For “ACTACGCGGCCGCCCTGGAGAATCCCGGTGCCGAGGCCGCTCAATTGGTCGTAGACAGCTCTAGCACCGCTTAAACGCACGTACGCGCTGTCCCCCGCGTTTTAACCGCCAAGGGGATTACTCCCTAGTCTCCAGGCACGTGTCAGATATATACATCCTGTGCATGTAAGATCCAGT (double strand) [177 bp DNA (601)]”, the pKd was 6.39 in data set [3]; 6.87 in data set [1] (10 mM NaCl); 6.73 in data set [1] (150 mM NaCl); 6.37 in data set [2] (150 mM NaCl (Fig. S12 legend says 10 mM)); 6.62 in data set [2].

These data come from PMC10907630.
